This is an account of results in patent US6103514A, “Protease” (The University of Tokyo, priority 1997, dated 2000).

The conditions of data set [1]: cited from earlier work.
Data set [2] in a line: Assay of protease activity with fluorescent peptidyl-MCA substrates. The format is biochemical. The following applies: for Hydrolysis of Z-Arg-Arg-MCA (in words): substrate Z-Arg-Arg-MCA. The method, then:
Table 2 lists specific activities of 26·29 kDa protease, cathepsin B from flesh fly and cathepsin L from flesh fly to various substrates, which were measured in terms of their hydrolytic activities against the fluorescence-attached synthetic substrates. The numeral represents the mass of fluorescent synthetic substrate hydrolyzed by a unit weight of protease, or a specific activity of that enzyme. For the numerals of Table, one unit of activity is defined as a weight of enzyme necessary for hydrolyzing 1 μmol of substrate in 10 minutes. "ND" in Table represents no result because the test not being made. Sequence listing numbers for sequences in Table 2 are: SEQ ID NO:100 and SEQ ID NO:101.
Assay of enzymatic activity was performed using 0.2 ml of 5 mM sodium phosphate (pH 6.0) containing 0.05 mM peptidyl-MCA substrate, 100 mM NaCl, 1 mM EDTA, 5 mM 2-mercaptoethanol, and 10 μl of the test fraction. The solution was incubated at 27° C. for 10 minutes, to which was added 0.2 ml of 20% aqueous solution of acetic acid to stop the reaction. Fluorescence at 380 nm and 460 nm was observed. The amount necessary for hydrolyzing 1 μmol substrate in 10 minutes under the above condition was defined as one unit of protease activity.
For purification of 26·29 kDa protease, carbobenzoxy-Arg-Arg-MCA was used as the substrate. Further, for determination of substrate specificity, various peptidyl-MCAs were used.

A further data set has as its system 26·29 kDa protease. The following applies: stated under Prior Art; cited from earlier work.
Data set [3] can be described thus: Assay of protease activity with fluorescent peptidyl-MCA substrates. The following applies: for Recovery of protease activity after treatment to restore activity: condition effective for recombinant human cathepsin L precursor, natural protease denatured first. The format is biochemical.
[4] abbreviates: substrate Suc-Ala-Ala-Pro-Phe-MCA.
[5] abbreviates: substrate Suc-Leu-Leu-Val-Tyr-MCA.
Where [6] appears, read: substrate z-Arg-Arg-MCA, 1 unit hydrolyzes 1 μmol substrate in 10 minutes.

On to “cathepsin B: cathepsin B from flesh fly, comparison cysteine protease”, for which the “Hydrolysis of Suc-Leu-Leu-Val-Tyr-MCA (in words, literature)” value in [1] (substrate Suc-Leu-Leu-Val-Tyr-MCA, Kurata et al. 1992) was “hydrolyzes”. For the same molecule, the “Hydrolysis of Z-Arg-Arg-MCA (in words, literature)” value in data set [1] (substrate Z-Arg-Arg-MCA, Takahashi et al. 1993) is reported as “can not hydrolyze”. For the same molecule, the “Activity (units/mg enzyme)” value was 0.29 units/mg enzyme in data set [2] (substrate Pyr-Gly-Arg-MCA); 0.5 units/mg enzyme in data set [2] (setting [4]); 0.83 units/mg enzyme in data set [2] (substrate Suc-Ala-Pro-Phe-MCA); 18.7 units/mg enzyme in data set [2] (setting [5]); 0.86 units/mg enzyme in [2] (setting [6]); 20.6 units/mg enzyme in [2] (substrate z-Phe-Arg-MCA). Moreover, the “Hydrolysis of Z-Arg-Arg-MCA (in words)” value in data set [2] is “scarcely hydrolyzes”.
`CC(C)C[C@H](NC(=O)[C@H]1O[C@@H]1C(=O)O)C(=O)NCCCCN=C(N)N` [E64]: the “Inhibition of protease activity” value in the data set on 26·29 kDa protease is reported as “inhibited”.
Regarding “cathepsin L: cathepsin L from flesh fly, comparison cysteine protease”, the “Activity (units/mg enzyme)” value in data set [2] (setting [5]) came out at 0.04 units/mg enzyme; in data set [2] (setting [6]), 0.17 units/mg enzyme; in [2] (substrate z-Phe-Arg-MCA), 180 units/mg enzyme. Besides, the “Hydrolysis of Z-Arg-Arg-MCA (in words)” value in data set [2] was “practically does not hydrolyze”.
For cathepsin L from flesh fly (enzyme), the Activity (units/mg enzyme) (units/mg enzyme) in the data set with Z-Phe-Arg-MCA turned out to be 180; with Suc-Leu-Leu-Val-Tyr-MCA, 0.04; in the data set with Z-Arg-Arg-MCA it was 0.17.
On to “26·29 kDa protease of flesh fly (Sarcophaga peregrina), isolated and purified from body fluid cells (enzyme)”, for which the Activity (units/mg enzyme) (units/mg enzyme) with Suc-Ala-Pro-Phe-MCA stood at 0.01; with Z-Phe-Arg-MCA, 2.25; with Boc-Phe-Ser-Arg-MCA it was 0.15; in the data set with Suc-Leu-Leu-Val-Tyr-MCA, 0.03; with Pyr-Gly-Arg-MCA it was 0.03; in the data set with Boc-Val-Leu-Lys-MCA, 0.61. The Activity (units/mg enzyme) (units/mg enzyme) was found to be 4.29 in the data set with Z-Arg-Arg-MCA and 0.01 with Suc-Ala-Ala-Pro-Phe-MCA.
For cathepsin B from flesh fly (enzyme), the Activity (units/mg enzyme) (units/mg enzyme) with Suc-Ala-Pro-Phe-MCA turned out to be 0.83; in the data set with Z-Phe-Arg-MCA it was 20.6; in the data set with Suc-Leu-Leu-Val-Tyr-MCA, 18.7; in the data set with Pyr-Gly-Arg-MCA, 0.29; in the data set with Z-Arg-Arg-MCA, 0.86; in the data set with Suc-Ala-Ala-Pro-Phe-MCA, 0.5.

B1: 26.multidot.29 kDa protease: bimolecular cysteine protease of 26 kDa and 29 kDa subunits, purified from body fluid cells of flesh fly (Sarcophaga peregrina) (protein)
chain 1: TNPPRWDPNYIVKGTLYIPYAEIAEPFYAWYDKNTRRSRIDYYGGMVKTYQLANEHPFGTSLKLAPITTKSELNKVTCLQLNGTSEDPVQVQAILPNAKDFKLIGTETFLGFNCDKFRLEETIGDKKNVYTLWVRYKKSPHYPASRMPIPVRYEMRGYNTLLGSHYDHYYLDYDSYDHDDIPNEVFELDDNMECMPFPGPGK
chain 2: NGGNLVRLSQQALIDCSWEYGNNGCDGGEDFRAYKWMMEMGGVPTEEEYGPYLGQDGYCHAKNVSLVAPITGFFNVTPNDPMALKIALLKHGPISVAIDASPKTFSFYSHGVYYEPTCKNGLDELDHAVLAVGYGTINGEDYWLVKNSWSTYWGNDGYILMSARKNNCGVMTMPTYVEM
B1: the “Activity (units/mg enzyme)” value turned out to be 0.15 units/mg enzyme in data set [2] (substrate Boc-Phe-Ser-Arg-MCA); 0.61 units/mg enzyme in data set [2] (substrate Boc-Val-Leu-Lys-MCA); 0.03 units/mg enzyme in data set [2] (substrate Pyr-Gly-Arg-MCA); 0.01 units/mg enzyme in data set [2] (setting [4]); 0.01 units/mg enzyme in data set [2] (substrate Suc-Ala-Pro-Phe-MCA); 0.03 units/mg enzyme in [2] (setting [5]). Further, the “Activity (units/mg enzyme)” value was 4.29 units/mg enzyme in data set [2] (setting [6]) and 2.25 units/mg enzyme in data set [2] (substrate z-Phe-Arg-MCA). For the same molecule, the “Hydrolysis of Z-Arg-Arg-MCA (in words)” value in data set [2] is listed as “well hydrolyzes”. In addition, in data set [2] (substrate Z-Phe-Arg-MCA), the “Hydrolysis of Z-Phe-Arg-MCA (in words)” value is reported as “has also a hydrolyzing activity”. Also, the “Recovery of protease activity after treatment to restore activity” value in [3] was “no positive effects”.

B2: recombinant homologue of 29 kDa subunit: recombinant protein of 29 kDa subunit expressed in E. coli, recovered as inclusion bodies (protein)
chain: NGGNLVRLSQQALIDCSWEYGNNGCDGGEDFRAYKWMMEMGGVPTEEEYGPYLGQDGYCHAKNVSLVAPITGFFNVTPNDPMALKIALLKHGPISVAIDASPKTFSFYSHGVYYEPTCKNGLDELDHAVLAVGYGTINGEDYWLVKNSWSTYWGNDGYILMSARKNNCGVMTMPTYVEM
For the molecule B2, the “Recovery of protease activity after treatment to restore activity” value in data set [3] is “could not recover its activity”. Further, the “Protease activity towards Z-Arg-Arg-MCA of recombinant protein expressed in E. coli” value in data set [3] (homogenate or inclusion bodies from expressing E. coli cells) is on record as “only as much as the control E. coli cells”.
